T1: PKC-ζ (purified isoform) (Homo sapiens (Human), UniProt Q05513 1-592)
T1 construct: also called PKC-zeta; PKCzeta
T1 sequence: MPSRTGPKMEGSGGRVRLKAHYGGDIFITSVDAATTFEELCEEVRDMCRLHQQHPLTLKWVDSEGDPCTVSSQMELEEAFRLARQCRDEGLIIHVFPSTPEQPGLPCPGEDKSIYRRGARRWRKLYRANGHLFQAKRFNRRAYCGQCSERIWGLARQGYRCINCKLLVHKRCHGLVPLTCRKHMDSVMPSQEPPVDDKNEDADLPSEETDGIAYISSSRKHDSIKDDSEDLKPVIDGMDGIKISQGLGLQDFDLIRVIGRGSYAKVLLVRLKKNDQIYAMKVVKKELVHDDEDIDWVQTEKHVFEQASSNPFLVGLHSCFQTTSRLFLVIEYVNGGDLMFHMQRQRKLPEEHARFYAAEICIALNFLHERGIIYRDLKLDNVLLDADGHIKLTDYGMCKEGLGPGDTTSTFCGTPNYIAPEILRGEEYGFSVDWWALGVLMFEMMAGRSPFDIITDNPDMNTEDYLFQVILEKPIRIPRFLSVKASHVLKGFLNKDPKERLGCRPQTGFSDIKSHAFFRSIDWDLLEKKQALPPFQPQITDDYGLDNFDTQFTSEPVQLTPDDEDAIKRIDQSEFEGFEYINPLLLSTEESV


How the values were obtained:
PKC-δ (purified isoform) [1] = target: T2, PKC-δ (purified isoform) (Homo sapiens (Human), UniProt Q05655 1-676); assay: competitive ELISA on purified PKC-δ vs anti-PKC-δ Ab; PRE 50 µM
T2 construct: also called PKC-delta; PKCdelta
T2 sequence (Q05655 whole entry, stated change not applied, canonical isoform): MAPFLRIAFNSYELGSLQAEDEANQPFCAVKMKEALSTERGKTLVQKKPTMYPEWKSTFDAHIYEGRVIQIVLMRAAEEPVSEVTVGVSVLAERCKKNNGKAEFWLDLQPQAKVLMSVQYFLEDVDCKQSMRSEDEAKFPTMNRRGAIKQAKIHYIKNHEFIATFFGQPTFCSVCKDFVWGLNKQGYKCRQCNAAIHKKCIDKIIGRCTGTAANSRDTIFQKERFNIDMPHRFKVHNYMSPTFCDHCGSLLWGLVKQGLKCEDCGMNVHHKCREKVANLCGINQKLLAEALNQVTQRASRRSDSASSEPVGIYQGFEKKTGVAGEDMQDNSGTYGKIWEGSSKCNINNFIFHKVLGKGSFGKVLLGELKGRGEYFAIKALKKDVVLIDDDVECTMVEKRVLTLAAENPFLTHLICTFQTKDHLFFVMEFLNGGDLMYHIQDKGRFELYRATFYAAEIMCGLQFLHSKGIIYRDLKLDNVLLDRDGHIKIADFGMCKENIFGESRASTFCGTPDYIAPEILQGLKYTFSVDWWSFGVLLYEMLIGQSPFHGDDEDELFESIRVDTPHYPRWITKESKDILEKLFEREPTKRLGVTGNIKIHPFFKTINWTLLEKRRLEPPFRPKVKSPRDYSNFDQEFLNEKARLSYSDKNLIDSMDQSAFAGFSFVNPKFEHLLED
Experimental: (§1) Greiner 96 well ELISA plates were coated with the appropriate PKC isoform diluted in PBSN (PBS with Calcium/Magnesium+0.05% Sodium azide w/w). 50 μL/well at 250 ng/mL was used. Control wells contained PBSN only. Plates were incubated overnight at 4° C.
(§2) The plates were washed 3 times with 200 μL of dH₂O per well, then 100 μL of blocking solution was added per well and the plate incubated for 1 h at 37° C. The washing steps with dH₂O were repeated and 50 μL of the appropriate PRE solution (PRE stock solution [20 mM in DMSO] diluted in PBSN) was added and the plate incubated for 1 h at room temperature.
(§3) 50 μL of 1:1000 dilution of Alkaline Phosphatase (AP) conjugated antibody (anti-rabbit for all except zeta, which was anti-goat) was then added and the plate incubated for 1 h at room temperature. Washing with dH₂O was then repeated. Finally, 100 μL of pNPP solution in pNPP buffer (2 mM MgCl₂, 100 mM Sodium bicarbonate in water, pH 9.8) was added to all wells and incubated for 8 minutes for α, βI, βII ε, and ζ, or for 15-20 mins for […] (until sufficient coloration is observed). The reaction was stopped by addition of Stop solution (2N NaOH) and the absorbance at 405 nm was read on a Galaxy Plate reader.

PKC-ζ (purified isoform) [2] = target: T1, PKC-ζ (purified isoform); assay: competitive ELISA on purified PKC-ζ vs anti-PKC-ζ Ab; PRE 50 µM
Experimental: as §1, §2, §3

PKC-δ (purified isoform) [3] = target: T2, PKC-δ (purified isoform); assay: competitive ELISA on purified PKC-δ vs anti-PKC-δ Ab; PRE 100 µM
Experimental: as §1, §2, §3

PKC-δ (purified isoform) [4] = target: T2, PKC-δ (purified isoform); assay: competitive ELISA on purified PKC-δ vs anti-PKC-δ Ab; PRE 200 µM
Experimental: as §1, §2, §3

PKC-ζ (purified isoform) [5] = target: T1, PKC-ζ (purified isoform); assay: competitive ELISA on purified PKC-ζ vs anti-PKC-ζ Ab; PRE 100 µM
Experimental: as §1, §2, §3

PKC-ζ (purified isoform) [6] = target: T1, PKC-ζ (purified isoform); assay: competitive ELISA on purified PKC-ζ vs anti-PKC-ζ Ab; PRE 200 µM
Experimental: as §1, §2, §3

[7] = target: T3, PKC-βI (purified isoform) (Homo sapiens (Human), UniProt P05771 2-671); assay: competitive ELISA on purified PKC-βI vs anti-PKC-βI Ab; PRE 50 µM
T3 construct: also called PKC-beta I
T3 sequence (P05771 2-671 limits assumed): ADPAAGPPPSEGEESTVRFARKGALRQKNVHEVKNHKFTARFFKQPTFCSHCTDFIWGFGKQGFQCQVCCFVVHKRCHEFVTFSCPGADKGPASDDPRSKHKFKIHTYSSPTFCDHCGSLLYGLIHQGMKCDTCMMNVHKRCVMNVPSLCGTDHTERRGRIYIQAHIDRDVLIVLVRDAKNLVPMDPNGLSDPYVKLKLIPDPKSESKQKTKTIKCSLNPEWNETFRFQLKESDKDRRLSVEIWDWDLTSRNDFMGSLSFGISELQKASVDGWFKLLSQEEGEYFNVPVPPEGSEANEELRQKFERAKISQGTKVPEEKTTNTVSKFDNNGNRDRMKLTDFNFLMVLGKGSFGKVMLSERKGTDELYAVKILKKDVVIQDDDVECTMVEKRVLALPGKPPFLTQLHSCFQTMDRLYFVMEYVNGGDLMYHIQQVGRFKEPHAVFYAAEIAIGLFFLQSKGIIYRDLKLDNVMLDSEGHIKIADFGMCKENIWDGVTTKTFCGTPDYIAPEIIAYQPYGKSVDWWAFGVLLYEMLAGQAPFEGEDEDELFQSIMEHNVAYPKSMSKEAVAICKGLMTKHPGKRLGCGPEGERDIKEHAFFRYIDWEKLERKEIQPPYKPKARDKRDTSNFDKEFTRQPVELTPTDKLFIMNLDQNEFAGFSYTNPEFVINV
Experimental: as §1, §2, §3

[8] = target: T3, PKC-βI (purified isoform); assay: competitive ELISA on purified PKC-βI vs anti-PKC-βI Ab; PRE 100 µM
Experimental: as §1, §2, §3

[9] = target: T3, PKC-βI (purified isoform); assay: competitive ELISA on purified PKC-βI vs anti-PKC-βI Ab; PRE 200 µM
Experimental: as §1, §2, §3

[10] = target: T4, PKC-α (endogenous, human cell lysates and cells) (human, UniProt P17252 2-672); assay: anti-PKC-α immunofluorescence, V5E-transfected IMR-32 cells loaded with PRE (label on PKC-α and V5E); control with endocytosis reagent 113
T4 construct: Endogenous protein of human cell lysates, on Western blot membranes (denatured) or in fixed cells; also called PKC-alpha; PKC-A
Description: Neuroblastoma cells from the IMR-32 cell line were stably transfected with a vector containing the V5E sequence of PKC-α as outlined above in Example 13. The V5E sequence is part of the antigenic amino acid sequence that is used to raise the commercially available anti-PKC-α isoform-specific antibody.
The peptides PRE 1, 2, 3, 4, 5, 6, 7, 8, 9, 10, 11, 12 and 13 (see Table 3) were incorporated into the transfected IMR-32 cells via pinocytic endocytosis (Molecular Probes) according to the supplier's recommendations. Following fixation and permeabilization, PKC-α was detected using an Alexa fluor secondary antibody (as described above in Example 8).

| Binder | binding capacity (%) (PKC-δ (purified isoform) [1]) | binding capacity (%) (PKC-ζ (purified isoform) [2]) | binding capacity (%) (PKC-δ (purified isoform) [3]) | binding capacity (%) (PKC-δ (purified isoform) [4]) | binding capacity (%) (PKC-ζ (purified isoform) [5]) | binding capacity (%) (PKC-ζ (purified isoform) [6]) | binding capacity (%) [7] [%] | binding capacity (%) [8] [%] | binding capacity (%) [9] [%] | Relative Fluorescence Intensity [10] |
| --- | --- | --- | --- | --- | --- | --- | --- | --- | --- | --- |
| Ac-AKGIQEVKGGDAQNLIGISI-NH2 (Synthetic peptide; also called peptide PRE 3) [PRE 3] | 48.3 | 14 | 56 | 57 | 23.9 | 29.1 | 26 | 22.5 | 23 | 83 |
| Ac-KDAQNLIGISI-NH2 (Synthetic peptide; also called peptide PRE 4) [PRE 4] | 29.2 | 0 | 30.7 | 17.3 | 0 | 5.85 | 6.02 | 15.7 | 7.46 | 79 |
| Ac-RDAQNLIGISI-NH2 (Synthetic peptide; also called peptide PRE 11) [PRE 11] | 34.1 | 0 | 21.5 | 18.7 | 0 | 0 | – | – | – | 131 |
| Ac-KDANQLIGISI-NH2 (Synthetic peptide; also called peptide PRE 6) [PRE 6] | 17.5 | 0 | 13.2 | 14 | 0 | 0 | 0 | 7.93 | 6.14 | 73 |
| Ac-ISIGILQNADK-NH2 (Synthetic peptide (retro form of PRE 4); also called peptide PRE 7) [PRE 7] | 3.06 | 1.83 | 0 | 0 | 0 | 1.54 | 2.1 | 0 | 0 | 75 |
| Ac-KDAQNLI-NH2 (Synthetic peptide; also called peptide PRE 12; Ac-KDAQNLI-NH2) [PRE 12] | 2.26 | – | 1.02 | 23.5 | – | – | 0.79 | 0 | 0 | 124 |
| Ac-RDAQNLI-NH2 (Synthetic peptide; also called peptide PRE 13; Ac-RDAQNLI-NH2) [PRE 13] | 0 | 0 | 0.79 | 17.9 | 0 | 4.29 | 0 | 0 | 0 | – |

Reference: US20100041597A1 (published 2010)
